Square brackets hold non-standard residues; d marks the D form. hArg = N=C(N)NCCCC[C@H](N)C(=O)O; Cha = N[C@@H](CC1CCCCC1)C(=O)O; Cit = NC(=O)NCCC[C@H](N)C(=O)O; dCha = N[C@H](CC1CCCCC1)C(=O)O; Aze = O=C(O)[C@@H]1CCN1; Tea = thienylalanine
Assays:
thrombin [1] = settings: literature values; cited from earlier work
thrombin [2] = target: thrombin (Homo sapiens, UniProt P00734); experiment: in-vitro inhibition of the amidase activity of thrombin (fluorogenic substrate Tos-Gly-Pro-Arg-AMC); assay type: biochemical; design: 10 μl of human thrombin solution
Method: The values of the inhibiting constants Ki were obtained from assays in which thrombin hydrolyzes the fluorogenic substrate Tos-Gly-Pro-Arg-(7-amino-4-methylcumarin). The assays were carried out in […] of assay buffer (0.05 M tris, 0.1 M NaCl, 0.1% PEG 8000, pH 7.6) with 10 μl of human thrombin solution (10^−5 U/μl in the assay buffer) and 140 μl of a solution of the fluorogenic substrate in an assay buffer at a concentration of 30 μM. Solutions of the test compound (10 μl) were added at various concentrations. The rates of the hydrolysis of the substrate were measured by monitoring the reactions at […] of the release of 7-amino-4-methylcumarin using AMC. The reaction reached an equilibrium state within three minutes, after thrombin, the substrate, and an inhibitor were mixed. The kinetic data of the competing inhibition (Km, Vmax, and Ki) were analyzed by means of the representation according to Hanes (A/V against A at various values of A, where A is the substrate concentration and V the reaction rate).

[3] = peptide concentration of 250 nM

Substance	inhibition of the amidase activity of the thrombin (thrombin [2]; peptide concentration of 1 μM)	other results
H-D-Phe-Pro-Arg-H		Ki (thrombin [1]): 70 nM
N-acetyl-L-Ser-L-Ala-L-Cha-D-Pro-D-Tyr-L-Arg amide (Ac-SA[Cha][dP][dY]R-NH2; SMILES CC(=O)N[C@@H](CO)C(=O)N[C@@H](C)C(=O)N[C@@H](CC1CCCCC1)C(=O)N1CCC[C@@H]1C(=O)N[C@H](Cc1ccc(O)cc1)C(=O)N[C@@H](CCCNC(=N)N)C(N)=O) [Example 10]	47%	
N-acetyl-L-Ser-L-Arg-L-Cha-D-Pro-D-Tyr-L-Arg amide (Ac-SR[Cha][dP][dY]R-NH2; SMILES CC(=O)N[C@@H](CO)C(=O)N[C@@H](CCCNC(=N)N)C(=O)N[C@@H](CC1CCCCC1)C(=O)N1CCC[C@@H]1C(=O)N[C@H](Cc1ccc(O)cc1)C(=O)N[C@@H](CCCNC(=N)N)C(N)=O) [Example 11]	51%	
N-acetyl-L-Ser-L-Ser-L-Cha-D-Pro-D-Tyr-L-Arg amide (Ac-SS[Cha][dP][dY]R-NH2; SMILES CC(=O)N[C@@H](CO)C(=O)N[C@@H](CO)C(=O)N[C@@H](CC1CCCCC1)C(=O)N1CCC[C@@H]1C(=O)N[C@H](Cc1ccc(O)cc1)C(=O)N[C@@H](CCCNC(=N)N)C(N)=O) [Example 7]	40%	
N-acetyl-L-Tea-D-Cha-L-Aze-D-Tyr-L-Har amide (Ac-[Tea][dCha][Aze][dY][hArg]-NH2) [Example 25]		inhibition of the amidase activity of the thrombin (thrombin [2]; [3]): 74%
N-acetyl-L-Trp-D-Cha-L-Aze-D-Tyr-L-Har amide (Ac-W[dCha][Aze][dY][hArg]-NH2; SMILES CC(=O)N[C@@H](Cc1c[nH]c2ccccc12)C(=O)N[C@H](CC1CCCCC1)C(=O)N1CC[C@H]1C(=O)N[C@H](Cc1ccc(O)cc1)C(=O)N[C@@H](CCCCNC(=N)N)C(N)=O) [Example 18]		inhibition of the amidase activity of the thrombin (thrombin [2]; [3]): 76%
N-acetyl-L-Trp-L-Cha-D-Pro-D-Tyr-L-Arg amide (Ac-W[Cha][dP][dY]R-NH2; SMILES CC(=O)N[C@@H](Cc1c[nH]c2ccccc12)C(=O)N[C@@H](CC1CCCCC1)C(=O)N1CCC[C@@H]1C(=O)N[C@H](Cc1ccc(O)cc1)C(=O)N[C@@H](CCCNC(=N)N)C(N)=O) [Example 9]	63%	
N-acetyl-L-Tyr-D-Pro-L-Cha-D-Pro-D-Tyr-L-Arg amide (Ac-Y[dP][Cha][dP][dY]R-NH2; SMILES CC(=O)N[C@@H](Cc1ccc(O)cc1)C(=O)N1CCC[C@@H]1C(=O)N[C@@H](CC1CCCCC1)C(=O)N1CCC[C@@H]1C(=O)N[C@H](Cc1ccc(O)cc1)C(=O)N[C@@H](CCCNC(=N)N)C(N)=O) [Example 15]	44%	
N-acetyl-L-Tyr-L-Cit-L-Cha-D-Pro-D-Tyr-L-Arg amide (Ac-Y[Cit][Cha][dP][dY]R-NH2; SMILES CC(=O)N[C@@H](Cc1ccc(O)cc1)C(=O)N[C@@H](CCCNC(N)=O)C(=O)N[C@@H](CC1CCCCC1)C(=O)N1CCC[C@@H]1C(=O)N[C@H](Cc1ccc(O)cc1)C(=O)N[C@@H](CCCNC(=N)N)C(N)=O) [Example 6]	55%	

— patent publication US7423021B2, “Peptidic thrombin inhibitors” (NSCI Novel Science International GmbH, priority 2003, dated 2008)
